Test results published in patent US20120135923A1 (IPSEN PHARMA S A S, published 2012).
Bridge positions count the residues as written; N and C are the ends. Square brackets hold non-standard residues; d marks the D form. 1Nal = N[C@@H](Cc1cccc2ccccc12)C(=O)O; 2Nal = N[C@@H](Cc1ccc2ccccc2c1)C(=O)O; d2Nal = N[C@H](Cc1ccc2ccccc2c1)C(=O)O; Bta = N[C@@H](Cc1csc2ccccc12)C(=O)O; βAla = NCCC(=O)O

How the values were obtained:
Test in all cases: [125I]-NDP-α-MSH competition, membranes
[1] = biological target: T1, human melanocortin receptor subtype 1 (hMC1-R) (human, UniProt Q01726 1-317)
T1 construct: whole, on cells; membranes of CHO-K1 cells
Method: (§1) Cellular membranes used for the in vitro receptor binding assays were obtained from transgenic CHO-K1 cells stably expressing hMC-R receptor subtypes 1, 3, 4 or 5. […] The pellets were resuspended in the same buffer and centrifuged at 50,000 g for 10 minutes at approximately 4° C. The washed pellets containing the cellular membranes were stored at approximately −80° C.
(§2) Competitive inhibition of [¹²⁵I](Tyr²)-(Nle⁴-D-Phe⁷)α-MSH ([¹²⁵I]-NDP-α-MSH, Amersham Biosciences®) binding was carried out in polypropylene 96 well plates. Cell membranes (1-10 μg protein/well) prepared as described above were incubated in 50 mM Tris-HCl at pH 7.4 containing 0.2% bovine serum albumin (BSA), 5 mM MgCl₂, 1 mM CaCl₂ and 0.1 mg/mL bacitracin, with increasing concentrations of the test compound and 0.1-0.3 nM […] for approximately 90-120 minutes at approximately 37° C. Bound [¹²⁵I]-NDP-α-MSH ligand was separated from free [¹²⁵I]-NDP-α-MSH by filtration through GF/C glass fiber filter plates (Unifilter®; Packard) presoaked with 0.1% (w/v) polyethylenimine (PEI), using a Packard Filtermate® harvester. Filters were washed three times with 50 mM Tris-HCl at pH 7.4 at a temperature of approximately 0-4° C. and then assayed for radioactivity using a Packard Topcount® scintillation counter. Binding data were analyzed by computer-assisted non-linear regression analysis (XL fit; IDBS).

[2] = biological target: T2, human melanocortin receptor subtype 5 (hMC5-R) (human, UniProt P33032 1-325)
T2 construct: whole, on cells; membranes of CHO-K1 cells
Method: as §1, §2

[3] = biological target: T3, human melanocortin receptor subtype 4 (hMC4-R) (human, UniProt P32245 1-332)
T3 construct: whole, on cells; membranes of CHO-K1 cells
Method: as §1, §2

[4] = biological target: T4, human melanocortin receptor subtype 3 (hMC3-R) (human, UniProt P41968 1-323)
T4 construct: whole, on cells; membranes of CHO-K1 cells
Method: as §1, §2

T4 sequence (P41968 whole entry): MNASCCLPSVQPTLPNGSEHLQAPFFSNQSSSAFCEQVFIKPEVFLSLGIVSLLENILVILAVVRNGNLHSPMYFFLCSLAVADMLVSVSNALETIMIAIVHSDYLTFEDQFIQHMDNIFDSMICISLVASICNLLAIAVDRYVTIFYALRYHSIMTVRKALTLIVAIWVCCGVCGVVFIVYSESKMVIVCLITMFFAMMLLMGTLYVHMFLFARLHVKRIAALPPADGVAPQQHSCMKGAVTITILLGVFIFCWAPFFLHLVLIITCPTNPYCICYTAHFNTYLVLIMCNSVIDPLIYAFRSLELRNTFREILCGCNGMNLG
T2 sequence (P33032 whole entry): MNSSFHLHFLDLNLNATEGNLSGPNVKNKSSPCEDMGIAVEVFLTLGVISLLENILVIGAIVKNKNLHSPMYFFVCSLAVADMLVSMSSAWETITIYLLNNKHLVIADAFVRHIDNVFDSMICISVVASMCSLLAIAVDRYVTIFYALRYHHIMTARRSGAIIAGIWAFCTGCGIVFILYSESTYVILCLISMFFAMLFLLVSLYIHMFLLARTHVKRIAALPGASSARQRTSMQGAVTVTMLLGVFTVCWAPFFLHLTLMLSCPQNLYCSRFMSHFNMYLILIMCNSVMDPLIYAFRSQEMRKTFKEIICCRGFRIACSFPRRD
T1 sequence (Q01726 whole entry): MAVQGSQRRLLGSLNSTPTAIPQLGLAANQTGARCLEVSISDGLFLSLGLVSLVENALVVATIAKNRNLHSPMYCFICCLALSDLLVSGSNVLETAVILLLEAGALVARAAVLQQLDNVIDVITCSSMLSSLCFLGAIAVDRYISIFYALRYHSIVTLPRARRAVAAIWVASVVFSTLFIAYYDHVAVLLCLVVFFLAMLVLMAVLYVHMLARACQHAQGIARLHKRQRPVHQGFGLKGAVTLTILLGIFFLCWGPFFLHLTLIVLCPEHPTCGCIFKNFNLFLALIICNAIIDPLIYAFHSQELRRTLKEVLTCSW
T3 sequence (P32245 whole entry): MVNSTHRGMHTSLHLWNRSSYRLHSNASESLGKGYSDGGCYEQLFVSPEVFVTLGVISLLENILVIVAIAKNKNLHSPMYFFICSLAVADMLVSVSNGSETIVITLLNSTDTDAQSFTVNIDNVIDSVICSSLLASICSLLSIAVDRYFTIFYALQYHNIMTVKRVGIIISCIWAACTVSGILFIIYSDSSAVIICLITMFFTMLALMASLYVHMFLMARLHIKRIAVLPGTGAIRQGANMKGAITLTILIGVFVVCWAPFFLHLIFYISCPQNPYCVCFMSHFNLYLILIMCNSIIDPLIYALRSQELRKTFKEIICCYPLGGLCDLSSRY

| Binder | Ki [1] [nM] | Ki [2] [nM] | Ki [3] [nM] | Ki [4] [nM] |
| --- | --- | --- | --- | --- |
| Ac-CEH[d2Nal]R[Bta]ACPPKD[βAla]RRRRRQRRR-NH2 (disulfide 1-8) | 3.86 | 38.3 | 0.192 | 4.97 |
| Ac-CEH[d2Nal]R[1Nal]ACPPRD[βAla]RRRRRQRRR-NH2 (disulfide 1-8; SMILES CC(=O)N[C@H]1CSSC[C@@H](C(=O)N2CCC[C@H]2C(=O)N2CCC[C@H]2C(=O)N[C@@H](CCCNC(=N)N)C(=O)N[C@@H](CC(=O)O)C(=O)NCCC(=O)N[C@@H](CCCNC(=N)N)C(=O)N[C@@H](CCCNC(=N)N)C(=O)N[C@@H](CCCNC(=N)N)C(=O)N[C@@H](CCCNC(=N)N)C(=O)N[C@@H](CCCNC(=N)N)C(=O)N[C@@H](CCC(N)=O)C(=O)N[C@@H](CCCNC(=N)N)C(=O)N[C@@H](CCCNC(=N)N)C(=O)N[C@@H](CCCNC(=N)N)C(N)=O)NC(=O)[C@H](C)NC(=O)[C@H](Cc2cccc3ccccc23)NC(=O)[C@H](CCCNC(=N)N)NC(=O)[C@@H](Cc2ccc3ccccc3c2)NC(=O)[C@H](Cc2c[nH]cn2)NC(=O)[C@H](CCC(=O)O)NC1=O) [Ac-c(Cys-Glu-His-D-2-Nal-Arg-1-Nal-Ala-Cys)-Pro-Pro-Arg-Asp-β-[…]NH2] | 2.93 | 59 | 0.293 | 9.07 |
| Ac-CEH[d2Nal]R[1Nal]ACPPKD[βAla]RRKRRQRRR-NH2 (disulfide 1-8; SMILES CC(=O)N[C@H]1CSSC[C@@H](C(=O)N2CCC[C@H]2C(=O)N2CCC[C@H]2C(=O)N[C@@H](CCCCN)C(=O)N[C@@H](CC(=O)O)C(=O)NCCC(=O)N[C@@H](CCCNC(=N)N)C(=O)N[C@@H](CCCNC(=N)N)C(=O)N[C@@H](CCCCN)C(=O)N[C@@H](CCCNC(=N)N)C(=O)N[C@@H](CCCNC(=N)N)C(=O)N[C@@H](CCC(N)=O)C(=O)N[C@@H](CCCNC(=N)N)C(=O)N[C@@H](CCCNC(=N)N)C(=O)N[C@@H](CCCNC(=N)N)C(N)=O)NC(=O)[C@H](C)NC(=O)[C@H](Cc2cccc3ccccc23)NC(=O)[C@H](CCCNC(=N)N)NC(=O)[C@@H](Cc2ccc3ccccc3c2)NC(=O)[C@H](Cc2c[nH]cn2)NC(=O)[C@H](CCC(=O)O)NC1=O) [Ac-c(Cys-Glu-His-D-2-Nal-Arg-1-Nal-Ala-Cys)-Pro-Pro-Lys-Asp-β-[…]NH2] | 4.62 | 45.3 | 0.505 | 5.68 |
| Ac-CEH[d2Nal]R[2Nal]ACPPKD[βAla]RRKRRQRRR-NH2 (disulfide 1-8; SMILES CC(=O)N[C@H]1CSSC[C@@H](C(=O)N2CCC[C@H]2C(=O)N2CCC[C@H]2C(=O)N[C@@H](CCCCN)C(=O)N[C@@H](CC(=O)O)C(=O)NCCC(=O)N[C@@H](CCCNC(=N)N)C(=O)N[C@@H](CCCNC(=N)N)C(=O)N[C@@H](CCCCN)C(=O)N[C@@H](CCCNC(=N)N)C(=O)N[C@@H](CCCNC(=N)N)C(=O)N[C@@H](CCC(N)=O)C(=O)N[C@@H](CCCNC(=N)N)C(=O)N[C@@H](CCCNC(=N)N)C(=O)N[C@@H](CCCNC(=N)N)C(N)=O)NC(=O)[C@H](C)NC(=O)[C@H](Cc2ccc3ccccc3c2)NC(=O)[C@H](CCCNC(=N)N)NC(=O)[C@@H](Cc2ccc3ccccc3c2)NC(=O)[C@H](Cc2c[nH]cn2)NC(=O)[C@H](CCC(=O)O)NC1=O) | 3.41 | 11.3 | 0.549 | 0.975 |
| Ac-CEH[d2Nal]R[2Nal]ACPPKD[βAla]RKRRRQRRR-NH2 (disulfide 1-8; SMILES CC(=O)N[C@H]1CSSC[C@@H](C(=O)N2CCC[C@H]2C(=O)N2CCC[C@H]2C(=O)N[C@@H](CCCCN)C(=O)N[C@@H](CC(=O)O)C(=O)NCCC(=O)N[C@@H](CCCNC(=N)N)C(=O)N[C@@H](CCCCN)C(=O)N[C@@H](CCCNC(=N)N)C(=O)N[C@@H](CCCNC(=N)N)C(=O)N[C@@H](CCCNC(=N)N)C(=O)N[C@@H](CCC(N)=O)C(=O)N[C@@H](CCCNC(=N)N)C(=O)N[C@@H](CCCNC(=N)N)C(=O)N[C@@H](CCCNC(=N)N)C(N)=O)NC(=O)[C@H](C)NC(=O)[C@H](Cc2ccc3ccccc3c2)NC(=O)[C@H](CCCNC(=N)N)NC(=O)[C@@H](Cc2ccc3ccccc3c2)NC(=O)[C@H](Cc2c[nH]cn2)NC(=O)[C@H](CCC(=O)O)NC1=O) | 2.25 | 2.77 | 0.303 | 0.62 |
| Ac-CEH[d2Nal]R[2Nal]ACPPKD[βAla]YGRKRRRQRRR-NH2 (disulfide 1-8; SMILES CC(=O)N[C@H]1CSSC[C@@H](C(=O)N2CCC[C@H]2C(=O)N2CCC[C@H]2C(=O)N[C@@H](CCCCN)C(=O)N[C@@H](CC(=O)O)C(=O)NCCC(=O)N[C@@H](Cc2ccc(O)cc2)C(=O)NCC(=O)N[C@@H](CCCNC(=N)N)C(=O)N[C@@H](CCCCN)C(=O)N[C@@H](CCCNC(=N)N)C(=O)N[C@@H](CCCNC(=N)N)C(=O)N[C@@H](CCCNC(=N)N)C(=O)N[C@@H](CCC(N)=O)C(=O)N[C@@H](CCCNC(=N)N)C(=O)N[C@@H](CCCNC(=N)N)C(=O)N[C@@H](CCCNC(=N)N)C(N)=O)NC(=O)[C@H](C)NC(=O)[C@H](Cc2ccc3ccccc3c2)NC(=O)[C@H](CCCNC(=N)N)NC(=O)[C@@H](Cc2ccc3ccccc3c2)NC(=O)[C@H](Cc2c[nH]cn2)NC(=O)[C@H](CCC(=O)O)NC1=O) | 1.49 | 3.13 | 0.865 | 0.604 |
| Ac-CEH[d2Nal]R[Bta]ACPPKD[βAla]YGRRKRRQRRR-NH2 (disulfide 1-8; SMILES CC(=O)N[C@H]1CSSC[C@@H](C(=O)N2CCC[C@H]2C(=O)N2CCC[C@H]2C(=O)N[C@@H](CCCCN)C(=O)N[C@@H](CC(=O)O)C(=O)NCCC(=O)N[C@@H](Cc2ccc(O)cc2)C(=O)NCC(=O)N[C@@H](CCCNC(=N)N)C(=O)N[C@@H](CCCNC(=N)N)C(=O)N[C@@H](CCCCN)C(=O)N[C@@H](CCCNC(=N)N)C(=O)N[C@@H](CCCNC(=N)N)C(=O)N[C@@H](CCC(N)=O)C(=O)N[C@@H](CCCNC(=N)N)C(=O)N[C@@H](CCCNC(=N)N)C(=O)N[C@@H](CCCNC(=N)N)C(N)=O)NC(=O)[C@H](C)NC(=O)[C@H](Cc2csc3ccccc23)NC(=O)[C@H](CCCNC(=N)N)NC(=O)[C@@H](Cc2ccc3ccccc3c2)NC(=O)[C@H](Cc2c[nH]cn2)NC(=O)[C@H](CCC(=O)O)NC1=O) | 2.24 | 16.4 | 0.437 | 1.57 |
| Ac-CEH[d2Nal]R[Bta]ACPPKD[βAla]YGRRRRRQRRR-NH2 (disulfide 1-8; SMILES CC(=O)N[C@H]1CSSC[C@@H](C(=O)N2CCC[C@H]2C(=O)N2CCC[C@H]2C(=O)N[C@@H](CCCCN)C(=O)N[C@@H](CC(=O)O)C(=O)NCCC(=O)N[C@@H](Cc2ccc(O)cc2)C(=O)NCC(=O)N[C@@H](CCCNC(=N)N)C(=O)N[C@@H](CCCNC(=N)N)C(=O)N[C@@H](CCCNC(=N)N)C(=O)N[C@@H](CCCNC(=N)N)C(=O)N[C@@H](CCCNC(=N)N)C(=O)N[C@@H](CCC(N)=O)C(=O)N[C@@H](CCCNC(=N)N)C(=O)N[C@@H](CCCNC(=N)N)C(=O)N[C@@H](CCCNC(=N)N)C(N)=O)NC(=O)[C@H](C)NC(=O)[C@H](Cc2csc3ccccc23)NC(=O)[C@H](CCCNC(=N)N)NC(=O)[C@@H](Cc2ccc3ccccc3c2)NC(=O)[C@H](Cc2c[nH]cn2)NC(=O)[C@H](CCC(=O)O)NC1=O) | 3.07 | 31.1 | 0.498 | 4.05 |
